Results on one molecule are retold here after patent US6551840B2, “Method of screening TGF-β-inhibiting substances” (Chugai Seiyaku Kabushiki Kaisha, priority 1997, dated 2003).

Experiment [1] concerns mouse kidney mesangial cell line SV40MES13. Description: Fibronectin EIA in SV40MES13 cells expressing TAK1-DN with or without TGF-β. The experiment is classed as cell-based. As to conditions: 2.5 ng/ml TGF-β, 24 hours; for increase of fibronectin in the culture supernatant by TGF-β addition: control MES/NEO about 3.3 fold; for increase of fibronectin in the extracellular matrix extract by TGF-β addition: control MES/NEO about 3.8 fold. The source says:
Then, pTAK1DN or pCOS1 that contains no inserted genes as a control vector was linearized by digesting with a restriction enzyme PvuI. These linearized vectors were introduced by electroporation into human fibroblast-derived HT-1080 (ATCC CCL 121), a mouse kidney mesangial cell line SV40MES13 (ATCC CRL 1927), and a mink pulmonary epithelial cell line Mv1Lu (ATCC CCL 64), and cells into which the gene was introduced were selected using G418 (manufactured by GIBCO-BRL).
(§1) The mouse mesangial cell line SV40MES13 (MES/DN3 and MES/DN6) into which pTAK1DN had been introduced and the control cells (MES/NEO) into which pCOS1 containing no inserted genes had been introduced were incubated in a low-serum medium (Medium 199 containing 0.2% FBS) with or without 2.5 ng/ml TGF-β for 24 hours. The amount of fibronectin in the culture supernatant or the extracellular matrix extract prepared using 1 M urea solution was determined by the EIA method as described in Example 7.

The test system is the same in experiment [2]. Kind of experiment: Type I and type IV collagen EIA in SV40MES13 cells expressing TAK1-DN with or without TGF-β. The experiment is classed as cell-based. Particulars: 2.5 ng/ml TGF-β, 24 hours; for increase of type IV collagen in the culture supernatant by TGF-β addition: control MES/NEO about 2.0 fold; for increase of type I collagen in the culture supernatant by TGF-β addition: control MES/NEO about 3.6 fold. As for the experimental part: as §1
Furthermore, the amount of type I and type IV collagen in the culture supernatant was determined by the EIA method. Thus, 100 μl of the culture supernatant was added to a 96-well microtiter plate (manufactured by Nunc), and the plate was incubated overnight at 4° C. After washing, it was blocked using the above 1% BSA solution, and then 5000-fold diluted rabbit anti-mouse type I collagen antibody (manufactured by LSL) or rabbit anti-mouse type IV collagen antibody (manufactured by LSL) was added, and was further incubated at room temperature for 2 hours. After washing, alkaline phosphatase-labeled goat anti-rabbit Ig antibody (manufactured by TAGO) was added, and was further incubated at room temperature for one hour. Then the substrate solution (manufactured by Sigma) was added and absorbance at […] was measured. As a standard, mouse type I collagen (manufactured by Chemicon) or mouse type IV collagen (manufactured by Cosmobio) was used.

In a further experiment the test system is Mv1Lu cell. Description: PAI-1 ELISA in culture supernatant of Mv1Lu cells with or without TGF-β1. The experiment is classed as cell-based, mink. Particulars: Mv1Lu cells with forced expression; 10 ng/ml TGF-β1, 24 hours; control cells about 16-fold. The source says: Accordingly, TAK1DN was subjected to forced expression in the Mv1Lu cell to investigate the effects of TGF-β stimulation on PAI-1 expression. The TAK1DN expression vector used was the above-mentioned TAK1DN, and the TAK1 polypeptide mutant TAK1-K63W expression vector was constructed by inserting a gene (Yamaguchi K. et al., (1995) Science 270, 2008-2011) encoding the TAK1 polypeptide mutant TAK1-K63W in which the lysine residue at position 63 has been replaced with the tryptophan residue at the EcoRI and NotI restriction enzyme site of pCOS1 to give pTAK1K63W.
The Mv1Lu cells into which pTAK1Dn had been introduced (Mv/DN2), the cells into which pTAK1K63W had been introduced (Mv/KN7), and the control cells into which pCOS1 containing no inserted genes (Mv/NEO) had been introduced were each incubated in a low-serum medium (MEM medium containing 0.2% FBS; manufactured by GIBCO-BRL) with or without 10 ng/ml of TGF-β1 for 24 hours. The amount of PAI-1 in the culture supernatant was determined using the PAI-1 Quantative ELISA (manufactured by CALBIOCHEM).
(ELISA stands for enzyme-linked immunosorbent assay.)

B1: TAK1-DN: polypeptide of Glu at position 77 to Gln at position 303 of TAK1 (SEQ ID NO: 4), the TAB1 binding site; dominant negative inhibitor (protein)
chain: ELRQLSRVNHPNIVKLYGACLNPVCLVMEYAEGGSLYNVLHGAEPLPYYTAAHAMSWCLQCSQGVAYLHSMQPKALIHRDLKPPNLLLVAGGTVLKICDFGTACDIQTHMTNNKGSAAWMAPEVFEGSNYSEKCDVFSWGIILWEVITRRKPFDEIGGPAFRIMWAVHNGTRPPLIKNLPKPIESLMTRCWSKDPSQRPSMEEIVKIMTHLMRYFPGADEPLQYPCQ
As for B1, in experiment [1] (MED/DN3 cells), the “increase of fibronectin in the culture supernatant by TGF-β addition” value was “about 2.4 fold” and the “increase of fibronectin in the extracellular matrix extract by TGF-β addition” value is reported as “about 2.6 fold”. Further, in experiment [1] (MES/DN6 cells), the “increase of fibronectin in the culture supernatant by TGF-β addition” value is given as about 2.3 fold and the “increase of fibronectin in the extracellular matrix extract by TGF-β addition” value is on record as about 2.1 fold. In addition, in experiment [2] (MED/DN3 cells), the “increase of type IV collagen in the culture supernatant by TGF-β addition” value is “about 1.5 fold” and the “increase of type I collagen in the culture supernatant by TGF-β addition” value is given as “about 2.0 fold”. Moreover, in experiment [2] (MES/DN6 cells), the “increase of type IV collagen in the culture supernatant by TGF-β addition” value is recorded as about 1.4 fold and the “increase of type I collagen in the culture supernatant by TGF-β addition” value is recorded as “about 2.0 fold”. For the same molecule, in the experiment with Mv1Lu cell, the “increase in PAI-1 in the culture supernatant by TGF-β1 addition” value is “about 4.3 fold”.
